The series in a line: yeast display, Sf9 membrane polyspecificity reagent, FACS + sequencing; frameworks hold sequencing errors. In a few lines:
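Galactose-induced (36–48 hours) yeast carrying a synthetic nanobody display library were exposed to 10% biotinylated, detergent-solubilized Sf9 membrane reagent at 4 °C for 1 hour. FACS followed streptavidin microbead enrichment, using low and high (top ~1%) gates for expression (anti-HA) and reagent binding (streptavidin). Colony PCR, MiSeq 2 × 250 sequencing and CDR-length filtering followed. Labels for polyreactivity reflect the gate of origin.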
For “QVQLVESGGGLVQAGGSLRLSCAASGITFGYYAMGWYRQAPGKERELVAAIRSSGGSTYYADSVKGRFTISRDNAKNTVYLQMNSLKPEDTAVYYCNARYRKSSRPGYEPYERYYWGQGTQVTVSS”, the “polyreactivity (PSR sort gate)” value is on record as “high polyreactivity”.
Consider “QVQLVESGGGLVQAGGSLRLSCAASGITFGYYAMGWYRQAPGKERELVAAISSSGGSTYYADSVKGRFTISRDNAKNTVYLQMNSLKPEDTAVYFCAARYRKYSWYDYWGQGTQVTVSS”, for which the “polyreactivity (PSR sort gate)” value is reported as “high polyreactivity”.
Next, “QVQLVESGGGLVQAGGSLRLSCAASGITFGYYAMGWYRQAPGKERELVAAITWSGGSTYYADSVKGRFTISRDNAKNTVYLQMNSLKPEDTAVYYCNADRFGRAHVYPEFDYWGQGTQVTVSS”: “low polyreactivity”.
Next, “QVQLVESGGGLVQAGGSLRLSCAASGITFHEYAMVWYRQAPGKERELVAAISASGGTTYYADSVKGRFTISRDNAKNTVYLQMNSLKPEDTAVYYCAALPLYITEYGYWGQGTQVTVSS”: “high polyreactivity”.
In the case of “QVQLVESGGGLVQAGGSLRLSCAASGITFHGNTMGWYRQAPGKERELVAGISTSGSITYYADSVKGRFTISRDNAKKTVYLQMNSLKPEDTAVYYCAAVSHATQIAERGYWGQGTQVTVSS”, the “polyreactivity (PSR sort gate)” value is reported as “low polyreactivity”.
Regarding “QVQLVESGGGLVQAGGSLRLSCAASGITFHGYAMGWYRQAPGTERELVAAISDSGSSTYYADSVKGRFTISRDNAKNTVYLQMNSLKPEDTAVYYCAAVSGFYDQYDYWGQGTQVTVSS”, the “polyreactivity (PSR sort gate)” value is listed as “low polyreactivity”.
Next, “QVQLVESGGGLVQAGGSLRLSCAASGITFHVYAMGWYRQAPGKEREFVASISWSGGSTYYADSVKGRFTISRDNAKNTVYLQMNSLKPEDTAVYYALLTVLSAVPYSVRYDYWGQGTQVTVSS”: “high polyreactivity”; “QVQLVESGGGLVQAGGSLRLSCAASGITFIPNAMGWYRQAPGKERELVAAISISGGRTYYADSVKGRFTISRDNAKNPVYLQMNSLKPEDTAVYYCAADRADFFVIRTIDPYDYWGQGTQVTVSS”: “low polyreactivity”.
Take “QVQLVESGGGLVQAGGSLRLSCAASGITFIYYAMGWYRQAPGKEREFVAAISSRDDSTYYADSVKGRFTISRDNAKNTVYLQMNSLKPEDTAVYYCAAASSRRSAIKYGYWGQGTQVTVSS”: the “polyreactivity (PSR sort gate)” value was “high polyreactivity”.
Next, “QVQLVESGGGLVQAGGSLRLSCAASGITFIYYAMGWYRQAPGKEREFVAAITFRDGDTYYADSVKGRFTISRDNAKNTVYLQMNSLKPEDTAVYYCADTYWVYYYYPGYDYWGQGTQVTVSS”: “low polyreactivity”.
Regarding “QVQLVESGGGLVQAGGSLRLSCAASGITFIYYAMGWYRQAPGKERELVAAISKSGGRTYYADSVKGRFTISRDNAKNTVYLQMNSLKPEDTAVYYCNKLVGDDTALYDYWGQGTQVTVSS”, the “polyreactivity (PSR sort gate)” value was “high polyreactivity”.
In the case of “QVQLVESGGGLVQAGGSLRLSCAASGITFKGNAMGWYRQAPGKERELVAVITWSGGSTYYADSVKGRFTISRDNAKNTVYLQMNSLKPEDTAVYYCAKPWKYGDSQYDYWGQGTQVTVSS”, the “polyreactivity (PSR sort gate)” value is “low polyreactivity”.
Turning to “QVQLVESGGGLVQAGGSLRLSCAASGITFKLYAIGWYRQAPGKERELVATINRGSSTYYADSVKGRFTISRDNAKNTVYLQMNSLKPEDTAVYYCAADNVRKWHKMDYWGQGTQVTVSS”, the “polyreactivity (PSR sort gate)” value is listed as “high polyreactivity”.
Next, “QVQLVESGGGLVQAGGSLRLSCAASGITFKSYTMGWYRQAPGKERELVAAITASGGTTRYADSVKGRFTISRDNAKNTVYLQMNSLKREDTAVYYCNALPFRYGKRRGYWGQGTQVTVSS”: “low polyreactivity”; “QVQLVESGGGLVQAGGSLRLSCAASGITFKYYAMGWYRQAPGKERELVAAIRGGRTYYADSVKGRFTISRDNAKNTVYLQMNSLKPEDTAVYYCNARYYQSGIKYNYWGQGTQVTVSS”: “high polyreactivity”.
As for “QVQLVESGGGLVQAGGSLRLSCAASGITFKYYTMGWYRPAPGKERELVAAITSRAGRTYADSVKGRFTISRDNAKNTVYLQMNSLKPEDTAVYYCDKKWRGNTYLYDYWGQGTQVTVSS”, the “polyreactivity (PSR sort gate)” value is “high polyreactivity”.
Next, “QVQLVESGGGLVQAGGSLRLSCAASGITFKYYTMGWYRQAPGKERELVAAISRGGSTNYADSVKGRFTISRDNAKNTVYLQMNSLKPEDTAVYYCAVDVPEFWWYRVIYDGYYWGQGTQVTVSS”: “high polyreactivity”; “QVQLVESGGGLVQAGGSLRLSCAASGITFKYYTMGWYRQAPGKERELVASINNDGSTYYADSVKGRFTISRDNAKNTVYFQMNSLKPEDTAVYYCAASGYGWFWYDYWGHGTQVTVSS”: “high polyreactivity”.
Next, “QVQLVESGGGLVQAGGSLRLSCAASGITFLPTAMGWYRQAPGKERELVAAITWRGGSTYYADAVKGRFTISRDHAKNTVYLQMNSLKREDTAVYYCGATGWQYVYYNYLWLKGGYWGQGTQVSVSS”: “high polyreactivity”; “QVQLVESGGGLVQAGGSLRLSCAASGITFLTYTMGWYRQAPGKERELVAAISRSGGRTYYADSVKGRFTISRDNAKNTVYLQMNSLKPEDTAVYYCAAVSANQDFDYWGQGTQVTVSS”: “high polyreactivity”; “QVQLVESGGGLVQAGGSLRLSCAASGITFLYYAMGWYRQAPGKERELVAAISGGGASTYYADSVKGRFTISRDNAKNTVYLQKNSLKPEDTAVYYCAAGYRDFFRARFGYWGQGTQVTVSS”: “high polyreactivity”.
Turning to “QVQLVESGGGLVQAGGSLRLSCAASGITFNSYAMGWYRQAPGKERELVASITERGDSTYYADSVKGRFTLSRDNAKNTVYLQMNSLKPEDTGVYYCAAAEHLTRPSSPTQDGDHWGQGTQVTVSS”, the “polyreactivity (PSR sort gate)” value was “low polyreactivity”.
Next, “QVQLVESGGGLVQAGGSLRLSCAASGITFNSYRMVWYRQAPVKERELVAAISGSGSSTYYADSVKGRFTISRDNAKNTVYLQMNSLKPEDTGVYYCADVSGKNVDFVWVLAYPRLDYWGQGTQVTVSS”: “low polyreactivity”; “QVQLVESGGGLVQAGGSLRLSCAASGITFNVYAMAWYRQAPGKERELVATITGSGGSTYYADSVKGRFTISRDNAKNTVYLQMNSQKPEDTAVYYCNAYYYFWGQGSQVTVSS”: “low polyreactivity”.
“QVQLVESGGGLVQAGGSLRLSCAASGITFNYYAMGWYRQAPGKEREFVAAITRSGGRTYYADSVKGRFTISRDNAKNTVYLQMNSLKPEDTAVYYCAAGYYILYIWKFDYWGQGTQVTVSS”: the “polyreactivity (PSR sort gate)” value is on record as “high polyreactivity”.
On to “QVQLVESGGGLVQAGGSLRLSCAASGITFNYYAMGWYRQAPGKERELVAVISSSGGRTYYADSVKGRFTISRDNAKNTVYFQMNSLKPEDTAVYYCGAGCSVAFYYWGQGTQVTVSS”, for which the “polyreactivity (PSR sort gate)” value is on record as “high polyreactivity”.
Next, “QVQLVESGGGLVQAGGSLRLSCAASGITFNYYTMVWYRQAPGKERELVARITISGGSTYYADSVKGRFTISRDNAKNTVDFQMYSLKPEDTAVYYCNVRLYGYRHDYWGQGTQVTVSS”: “high polyreactivity”.
Next, “QVQLVESGGGLVQAGGSLRLSCAASGITFPANAMGWYRQAPGKERELVAAISTSGGSTYYADSVKGRFTISRDNAKNTVYLQMNSLKPEDTAVYYCAATIYPYYSLYSHYYWGQCTQVTVSS”: “high polyreactivity”; “QVQLVESGGGLVQAGGSLRLSCAASGITFPDYDMGWYRQAPGKERELVAAITYRSGSTYYADSVKGRFTISRDNAKNTVYLQMNSLKPEDTAVYYCAATVRGVGYRYYYWGQGTQVTVSS”: “high polyreactivity”.
On to “QVQLVESGGGLVQAGGSLRLSCAASGITFPFYAMGWYRQAPGKERELVAGITSGGSTYYADSVKGRFTISRDNAKNTVYLQMNSLKPEDTAVYYCAAPFYRQSLIEYDFWGQGTQVTVSS”, for which the “polyreactivity (PSR sort gate)” value was “high polyreactivity”.

These data come from the nanobody polyreactivity screen of Harvey et al. (2022).
